Reference: paper PMC6831851 (2019)

B1: neuron-derived neurotrophic factor (NENF) [human (endogenous in NTera2 and in fibroblasts)] / DJ-1 WT fused with FLAG [human] (parent complex)
chain 1: GQTPRPAERGPPVRLFTEEELARYGGEEEDQPIYLAVKGVVFDVTSGKEFYGRGAPYNALTGKDSTRGVAKMSLDPADLTHDTTGLTAKELEALDEVFTKVYKAKYPIVGYTARRILNEDGSPNLDFKPEDQPHFDIKDEF
chain 2: MASKRALVILAKGAEEMETVIPVDVMRRAGIKVTVAGLAGKDPVQCSRDVVICPDASLEDAKKEGPYDVVVLPGGNLGAQNLSESAAVKEILKEQENRKGLIAAICAGPTALLAHEIGFGSKVTTHPLAKDKMMNGGHYTYSENRVEKDGLILTSRGPGTSFEFALAIVEALNGKEVAAQVKAPLVLKD

Variants of: B1
Assay: co-immunoprecipitation (anti-FLAG IP, immunoblot with anti-NENF), band intensity; DJ-1 KO DNLCs; NENF band relative to FLAG (LC)

| Variant | percent of parent |
| --- | --- |
| chain 2 V51A | 45% |
| chain 2 H126A | 73% |
| chain 2 C53A | 23% |
| chain 2 E163K | 0% |
